Experimental findings from US20050112555A1, “Cytidine deaminase activators, deoxycytidine deaminase activators, Vif antagonists, and methods of screening for molecules thereof” (priority 2003, published 2005) are described below.

Where two headings read alike, the source gives them in different places.

Experiment [1] deals with vif− HIV-1 particles. The experiment is classed as cell-based.
For experiment [2], the system named is pseudotyped HIV-1 viral particles. In kind it is cell-based. The settings on record: vs control 293T cells with pIRES-P vector.
Experiment [3] deals with HIV-1 Gag-Pol mRNA (GP-RNA region). The experiment in a line: Northern blot of viral Gag-Pol poly A+ RNA abundance in 293T cells. The settings on record: ΔVif vs Vif+ provirus, 293T-CEM15. In kind it is cell-based.
For experiment [4], the system named is HIV-1 GP-RNA. The experiment in a line: UV crosslinking RNA binding assay, HIV-1 GP-RNA. The settings on record: recombinant CEM15 1, 2 and 4 μg; 20 fmol radiolabeled GP-RNA.
The test system of experiment [5] is apoB RNA. The experiment in a line: UV crosslinking RNA binding assay, apoB RNA. The settings on record: recombinant CEM15; 20 fmol radiolabeled apoB RNA.
For experiment [6], the system named is HIV-1 p24 and RT protein. The experiment in a line: Western blot of HIV-1 proteins in proviral-transfected 293T cell lysates. In kind it is cell-based. The settings on record: ΔVif proviral DNA, 72 h, vs control pIRES-P cells. On the technique in general: In western blotting, separated proteins are transferred to a membrane and probed.
Experiment [7] concerns reporter apoB mRNA site C6666. The experiment in a line: Poisoned primer extension editing assay of reporter apoB mRNA in yeast.
[8] abbreviates: overexpressed in yeast, late log phase growth with galactose feeding.

B1: CEM15: human cytidine deaminase (APOBEC-3G) that reduces retroviral infectivity; HA-tagged, stably expressed in 293T cells or recombinant (protein)
chain: MKPHFRNTVERMYRDTFSYNFYNRPILSRRNTVWLCYEVKTKGPSRPPLDAKIFRGQVYSELKYHPEMRFFHWFSKWRKLHRDQEYEVTWYISWSPCTKCTRDMATFLAEDPKVTLTIFVARLYYFWDPDYQEALRSLCQKRDGPRATMKIMNYDEFQHCWSKFVYSQRELFEPWNNLPKYYILLHIMLGEILRHSMDPPTFTFNFNNEPWVRGRHETYLCYEVERMHNDTWVLLNQRRGFLCNQAPHKHGFLEGRHAELCFLDVIPFWKLDLDQDYRVTCFTSWSPCFSCAQEMAKFISKNKHVSLCIFTARIYDDQGRCQEGLRTLAEAGAKISIMTYSEFKHCWDTFVDHQGCPFQPWDGLDEHSQDLSGRLRAILQNQEN
modifications: left off: small tags and cut ends
notes: human cytidine deaminase (APOBEC-3G) that reduces retroviral infectivity; HA-tagged, stably expressed in 293T cells or recombinant
Consider B1, for which the “GFP expression from vif−, CEM15+ particles” value in experiment [1] is “indistinguishable from background fluorescence in control cells”. For the same molecule, in experiment [1], the “decrease in Vif− viral infectivity” value was not below 100 fold. Further, the “reduction of viral particle production” value in experiment [2] (Vif+ provirus) came out at 5 fold; in experiment [2] (ΔVif provirus (absence of Vif)), 100 fold. Moreover, the “depletion of viral RNA levels” value came to 2 fold in experiment [3] (24 h post-transfection), 9 fold in experiment [3] (48 h post-transfection) and 56 fold in experiment [3] (72 h post-transfection). Also, the “RNA binding (UV crosslinking)” value in experiment [4] was “bound to radiolabeled HIV-1 GP-RNA in concentration dependent manner”. The “RNA binding (UV crosslinking), yield of complexes compared with GP-RNA” value in experiment [5] was “the yield of complexes was similar”. In addition, the “HIV-1 p24 and RT protein abundance” value in experiment [6] is “marked reduction”.

B2: CDA from E. coli: dimeric cytidine deaminase from E. coli, equivalent to PDB entry 1AF2 (protein, UniProt P0ABF6 1-294, looked up)
Cytidine deaminase: MHPRFQTAFAQLADNLQSALEPILADKYFPALLTGEQVSSLKSATGLDEDALAFALLPLAAACARTPLSNFNVGAIARGVSGTWYFGANMEFIGATMQQTVHAEQSAISHAWLSGEKALAAITVNYTPCGHCRQFMNELNSGLDLRIHLPGREAHALRDYLPDAFGPKDLEIKTLLMDEQDHGYALTGDALSQAAIAAANRSHMPYSKSPSGVALECKDGRIFSGSYAENAAFNPTLPPLQGALILLNLKGYDYPDIQRAVLAEKADAPLIQWDATSATLKALGCHSIDRVLLA
Take B2: the “editing activity on reporter apoB mRNA (in words)” value in experiment [7] (expressed in yeast) was “incapable of editing on the reporter substrate”.

B3: Cdd1: tetrameric cytidine deaminase from S. cerevisiae with RNA editing activity (protein, UniProt Q06549 1-142, looked up)
Cytidine deaminase: MKVGGIEDRQLEALKRAALKACELSYSPYSHFRVGCSILTNNDVIFTGANVENASYSNCICAERSAMIQVLMAGHRSGWKCMVICGDSEDQCVSPCGVCRQFINEFVVKDFPIVMLNSTGSRSKVMTMGELLPMAFGPSHLN
As for B3, in experiment [7] (setting [8]), the “C to U editing of reporter apoB mRNA at site C6666” value is 6.7% and the “editing level relative to negative control (empty vector)” value was approximately 10 ×.
